# Measurements reported in US9513240B2, “MEMS-based calorimeter, fabrication, and use thereof” (The Trustees of Columbia University in the City of New York, priority 2011, dated 2016).
# Columns and labels:
# [1] = typical range; cited from earlier work
# [2] = MEMS DSC measurement of lysozyme unfolding; assay type: physicochemical; settings: lysozyme 1 to 20 mg/mL in 0.1 M Glycine-HCl buffer (pH 2.5); scan 25-75° C. at 5° C./min
# Protocol: DSC measurements of biomolecules were performed using the calibrated microdevice, whose sample chamber and reference chamber were respectively filled with biological sample and buffer solutions, scanned in a range of temperature of interest. The temperature sensors were used to monitor the temperatures of calorimetric chambers while the device output was obtained in real time to compute the biomolecular thermal power. Before DSC measurements, the baseline in device output, i.e., the thermopile output voltage in the absence of a differential power input, during temperature scanning was measured with both calorimetric chambers filled with buffer solutions. Biological sample and buffer solutions were degassed with a vacuum chamber built in-house, metered with micropipettes, and introduced by a syringe pump (New Era Pump Systems, NE 1000).
# The calibrated MEMS DSC device was employed to characterize protein unfolding, a common type of biomolecular conformational transition.
# The thermopile output voltage as a function of temperature, corrected by baseline subtraction, was measured at varying protein concentrations ranging from 1 to 20 mg/mL (FIG. 10). […]
# [3] = MEMS AC-DSC measurement of lysozyme unfolding; assay type: physicochemical
# Text: The DSC measurement system was configured similarly to that of Example 2. The microdevice was also placed in a thermal enclosure built in-house. The temperature of the sample stage in the thermal enclosure was controlled in closed-loop via a proportional-integral-derivative (PID) algorithm implemented by a commercial temperature controller (Lakeshore 331). The on-chip microheaters driven by a DC power supply (Agilent E3631A) were used to generate a constant differential power input, while for modulated heating, a square-wave AC voltage generated by a waveform generator (Agilent 33220A) was applied (FIG. 13). […] During device calibration, the thermopile output voltage was measured by a nanovoltmeter (Agilent 34420A), while during AC-DSC measurement, the amplitude and phase of thermopile voltage were measured by a lock-in amplifier (Stanford Research Systems SR830) referenced by the same AC modulation square wave from the waveform generator. […]
# The methods for calibrating the DC performance of the MEMS device were substantially the same as described in Example 2. The baseline in device output, i.e., the thermopile voltage with no differential power input during temperature scanning, was measured with both chambers filled with buffer solutions. […]
substance,measurement,setting,value
lysozyme,"Tm, published data",[1],55-58.9 °C
same,"ΔH of unfolding, published data",[1],90.1 to 105 kcal/mol
same,melting temperature Tm,[2],approximately 55 °C
same,total change of molar enthalpy (ΔH) of unfolding,[2],approximately 450 kJ/mol
same,apparent melting temperature (Tm),"[3]; 10 and 20 mg/mL in 0.1 M Glycine-HCl buffer, pH 2.5, 25 to 82° C. at 5° C./min, modulation 1, 5 or 10 Hz",55-58 °C
same,difference in the specific heat capacity (Δc) between native and unfolded states,[3]; regardless of the modulation frequency,3.0 kJ/mol·K
